Measured values taken from patent US20260125711, “RNA-GUIDED NUCLEASES AND ACTIVE FRAGMENTS AND VARIANTS THEREOF AND METHODS OF USE” (Life Edit Therapeutics, Inc., published 2026).

Assays:
Conditions in all cases: tags: N-terminal SV40 NLS and 3xFLAG; C-terminal nucleoplasmin NLS
LPG10167 = target: T1, LPG10167 (Bacillus toyonensis); experiment: cell_activity; PAM nnnnCC; HEK293T
T1 chain: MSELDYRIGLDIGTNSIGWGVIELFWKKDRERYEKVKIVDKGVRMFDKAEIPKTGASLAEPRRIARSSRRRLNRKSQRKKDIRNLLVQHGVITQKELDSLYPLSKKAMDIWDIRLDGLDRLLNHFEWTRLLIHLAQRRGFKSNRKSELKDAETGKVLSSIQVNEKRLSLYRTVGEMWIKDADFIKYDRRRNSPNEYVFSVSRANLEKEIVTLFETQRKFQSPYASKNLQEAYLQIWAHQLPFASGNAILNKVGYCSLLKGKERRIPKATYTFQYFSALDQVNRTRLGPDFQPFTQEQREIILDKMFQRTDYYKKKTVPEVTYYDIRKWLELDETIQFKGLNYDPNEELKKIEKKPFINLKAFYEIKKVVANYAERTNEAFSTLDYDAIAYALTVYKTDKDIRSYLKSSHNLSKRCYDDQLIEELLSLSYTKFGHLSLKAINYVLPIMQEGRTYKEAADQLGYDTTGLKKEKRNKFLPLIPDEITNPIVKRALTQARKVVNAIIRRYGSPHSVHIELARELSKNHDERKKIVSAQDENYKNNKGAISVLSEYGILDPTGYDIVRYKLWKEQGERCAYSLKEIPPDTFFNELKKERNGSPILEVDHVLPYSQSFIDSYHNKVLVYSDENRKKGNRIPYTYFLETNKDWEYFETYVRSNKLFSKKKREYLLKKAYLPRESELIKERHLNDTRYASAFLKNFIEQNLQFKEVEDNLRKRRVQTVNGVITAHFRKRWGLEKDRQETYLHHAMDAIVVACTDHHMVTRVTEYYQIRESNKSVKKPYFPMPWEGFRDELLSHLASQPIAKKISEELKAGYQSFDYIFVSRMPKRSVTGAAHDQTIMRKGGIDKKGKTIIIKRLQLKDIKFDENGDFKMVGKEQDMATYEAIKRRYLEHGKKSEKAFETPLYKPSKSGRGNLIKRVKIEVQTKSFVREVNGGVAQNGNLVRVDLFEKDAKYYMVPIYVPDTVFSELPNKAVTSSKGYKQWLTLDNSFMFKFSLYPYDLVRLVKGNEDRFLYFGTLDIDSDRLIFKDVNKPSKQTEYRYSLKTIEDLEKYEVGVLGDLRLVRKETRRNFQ
Procedure: (§1) Several of the constructs described above were introduced into mammalian cells. One day prior to transfection, 1×10⁵ HEK293T cells (Sigma) were plated in 24-well dishes in Dulbecco's modified Eagle medium (DMEM) plus 10% (vol/vol) fetal bovine serum (Gibco) and 1% Penicillin-Streptomycin (Gibco). The next day when the cells were at 50-60% confluency, 500 ng of an RGN expression plasmid plus 500 ng of a single gRNA expression plasmid were co-transfected using 1.5 μL of Lipofectamine 3000 (Thermo Scientific) per well, following the manufacturer's instructions. After 48 hours of growth, total genomic DNA was harvested using a genomic DNA isolation kit (Machery-Nagel) according to the manufacturer's instructions.
(§2) Additionally, products from PCR #2 containing Illumina overhang sequences underwent library preparation following the Illumina 16S Metagenomic Sequencing Library protocol. Deep sequencing was performed on an Illumina Mi-Seq platform by a service provider (MOGene). Typically, 200,000 of 250 bp paired-end reads (2×100,000 reads) are generated per amplicon. […] Output alignments were hand-curated to confirm insertion and deletion sites as well as identify microhomology sites at the recombination sites. All experiments were performed in human cells.

LPG10204 = target: T2, LPG10204; experiment: cell_activity; PAM SEQ ID NOs 146, 147; HEK293T
T2 chain: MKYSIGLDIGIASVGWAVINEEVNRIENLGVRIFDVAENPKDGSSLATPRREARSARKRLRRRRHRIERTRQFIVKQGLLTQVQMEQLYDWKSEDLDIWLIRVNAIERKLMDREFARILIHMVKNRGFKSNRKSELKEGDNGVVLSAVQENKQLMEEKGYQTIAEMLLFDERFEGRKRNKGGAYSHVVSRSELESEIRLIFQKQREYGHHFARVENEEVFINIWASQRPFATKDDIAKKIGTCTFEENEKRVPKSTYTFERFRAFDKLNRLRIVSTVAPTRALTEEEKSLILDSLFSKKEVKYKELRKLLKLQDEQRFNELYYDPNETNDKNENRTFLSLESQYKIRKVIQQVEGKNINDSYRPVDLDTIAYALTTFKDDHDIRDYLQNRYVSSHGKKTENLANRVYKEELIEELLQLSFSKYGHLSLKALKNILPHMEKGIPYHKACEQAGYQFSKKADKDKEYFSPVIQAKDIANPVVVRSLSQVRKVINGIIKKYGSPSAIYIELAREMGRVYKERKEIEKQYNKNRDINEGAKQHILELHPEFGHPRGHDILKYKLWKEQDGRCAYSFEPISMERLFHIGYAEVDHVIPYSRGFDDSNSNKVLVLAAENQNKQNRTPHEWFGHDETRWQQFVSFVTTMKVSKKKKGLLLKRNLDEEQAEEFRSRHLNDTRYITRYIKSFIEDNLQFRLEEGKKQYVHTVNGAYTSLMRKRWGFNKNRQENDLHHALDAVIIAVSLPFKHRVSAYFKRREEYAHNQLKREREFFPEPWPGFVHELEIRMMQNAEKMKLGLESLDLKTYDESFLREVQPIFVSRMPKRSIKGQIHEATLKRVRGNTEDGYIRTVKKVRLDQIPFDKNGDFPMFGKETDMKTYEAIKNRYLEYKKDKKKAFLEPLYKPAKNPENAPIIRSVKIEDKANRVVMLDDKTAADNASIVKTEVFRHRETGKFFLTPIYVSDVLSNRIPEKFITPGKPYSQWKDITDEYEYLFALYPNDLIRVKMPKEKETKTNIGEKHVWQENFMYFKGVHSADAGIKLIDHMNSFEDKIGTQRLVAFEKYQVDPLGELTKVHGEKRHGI
Procedure: (§3) Guide RNAs targeting several genes were designed for robustness testing of multiple RGNs in HEK293T cells by plasmid delivery. These guides were tested under optimal editing conditions for HEK293T cells in a 96-well plate which involved seeding 10,000-15,000 cells on day 1, lipofection using Lipofectamine 3000 on day 2, and genomic DNA extraction on day 4. […] Then, 0.3 μl of Lipofectamine 3000 diluted in Opti-MEM was added to the plasmid mixture and incubated for 15 mins before adding to cells.

LPG10208 = target: T3, LPG10208; experiment: cell_activity; PAM SEQ ID NOs 146, 147; HEK293T
T3 chain: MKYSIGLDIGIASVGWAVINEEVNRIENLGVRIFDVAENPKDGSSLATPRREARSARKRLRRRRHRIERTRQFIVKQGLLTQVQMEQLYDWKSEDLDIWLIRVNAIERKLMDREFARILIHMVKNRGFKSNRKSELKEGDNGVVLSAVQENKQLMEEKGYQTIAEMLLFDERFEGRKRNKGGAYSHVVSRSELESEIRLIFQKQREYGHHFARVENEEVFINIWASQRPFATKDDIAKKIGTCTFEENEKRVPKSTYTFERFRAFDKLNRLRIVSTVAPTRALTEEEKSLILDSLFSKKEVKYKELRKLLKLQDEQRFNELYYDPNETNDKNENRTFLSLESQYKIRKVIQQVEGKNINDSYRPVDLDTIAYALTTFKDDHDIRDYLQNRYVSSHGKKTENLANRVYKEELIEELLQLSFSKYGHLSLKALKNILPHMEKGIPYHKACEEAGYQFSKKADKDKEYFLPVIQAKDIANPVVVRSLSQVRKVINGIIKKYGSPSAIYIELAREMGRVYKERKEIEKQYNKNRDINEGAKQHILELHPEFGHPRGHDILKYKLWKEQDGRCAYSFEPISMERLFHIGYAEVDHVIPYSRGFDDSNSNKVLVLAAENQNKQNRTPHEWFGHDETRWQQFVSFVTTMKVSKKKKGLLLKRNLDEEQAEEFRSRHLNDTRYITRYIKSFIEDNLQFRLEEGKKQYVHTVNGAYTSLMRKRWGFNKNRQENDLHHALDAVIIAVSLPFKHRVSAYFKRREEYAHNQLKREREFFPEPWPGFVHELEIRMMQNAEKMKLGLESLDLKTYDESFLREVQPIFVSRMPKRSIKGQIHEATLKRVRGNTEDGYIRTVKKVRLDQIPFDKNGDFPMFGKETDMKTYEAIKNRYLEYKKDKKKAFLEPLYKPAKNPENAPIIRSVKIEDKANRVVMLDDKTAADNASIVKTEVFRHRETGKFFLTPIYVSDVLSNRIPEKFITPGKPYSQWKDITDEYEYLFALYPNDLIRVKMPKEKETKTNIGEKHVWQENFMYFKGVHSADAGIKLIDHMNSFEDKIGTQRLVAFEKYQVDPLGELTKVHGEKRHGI
Procedure: as §3

LPG10168 = target: T4, LPG10168 (Bacillus toyonensis); experiment: cell_activity; PAM nnnnCC; HEK293T
T4 chain: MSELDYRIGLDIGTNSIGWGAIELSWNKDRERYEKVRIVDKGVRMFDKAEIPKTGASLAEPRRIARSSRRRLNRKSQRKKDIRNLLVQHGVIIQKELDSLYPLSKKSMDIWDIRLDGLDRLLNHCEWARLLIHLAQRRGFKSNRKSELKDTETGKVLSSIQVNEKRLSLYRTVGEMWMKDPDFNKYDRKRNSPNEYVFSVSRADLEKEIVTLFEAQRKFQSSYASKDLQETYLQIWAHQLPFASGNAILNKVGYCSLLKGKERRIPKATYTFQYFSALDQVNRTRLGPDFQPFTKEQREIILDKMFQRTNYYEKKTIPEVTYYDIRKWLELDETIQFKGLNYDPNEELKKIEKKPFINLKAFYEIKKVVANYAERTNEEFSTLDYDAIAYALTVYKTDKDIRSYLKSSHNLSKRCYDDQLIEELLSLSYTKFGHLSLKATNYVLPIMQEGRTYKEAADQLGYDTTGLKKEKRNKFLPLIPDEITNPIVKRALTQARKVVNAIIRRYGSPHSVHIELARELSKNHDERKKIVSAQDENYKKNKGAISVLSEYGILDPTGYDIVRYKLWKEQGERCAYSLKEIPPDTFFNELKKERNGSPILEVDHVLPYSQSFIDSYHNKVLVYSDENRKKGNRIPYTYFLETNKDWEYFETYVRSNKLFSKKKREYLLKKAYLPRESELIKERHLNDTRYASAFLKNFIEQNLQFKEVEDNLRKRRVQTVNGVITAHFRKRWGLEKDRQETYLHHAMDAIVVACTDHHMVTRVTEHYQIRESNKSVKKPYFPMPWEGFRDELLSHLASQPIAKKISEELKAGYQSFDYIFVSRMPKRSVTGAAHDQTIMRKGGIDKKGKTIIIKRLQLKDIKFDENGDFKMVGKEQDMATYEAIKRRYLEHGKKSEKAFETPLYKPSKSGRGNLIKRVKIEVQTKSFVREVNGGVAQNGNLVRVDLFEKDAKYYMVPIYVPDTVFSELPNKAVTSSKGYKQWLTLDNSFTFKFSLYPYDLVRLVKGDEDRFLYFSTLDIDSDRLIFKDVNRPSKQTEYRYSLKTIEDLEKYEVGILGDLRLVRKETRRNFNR
Procedure: as §1, §2

B1: SGN003667 ; B2M target SGN003667 (ssRNA ; dsDNA)
RNA: AAGAGAGAGUAGCGCGAGCACAGCUGUCAUAGUUCCAUUAAAGCCAUUAAAGAAUGGCUUUGAUGUUUCUAUGAUAAGGGUUUCGGCCCGUGGCGUUGGGGAUCGCCUGCCCAUUUCAAUGGGCUUCUCCCCAUUU
DNA 1: AAGAGAGAGTAGCGCGAGCACAGCT
DNA 2: AGCTGTGCTCGCGCTACTCTCTCTT
activity (LPG10167): 1.16 % indels

B2: SGN005382 ; SGN005382 target (ssRNA ; dsDNA)
RNA: CUCUCUUUCUGGCCUGGAGGCUAUCGCCAUAAUUCCUCCAAAGGGAGUUAUUAUGGUAAGGCAUUAUGCCGUGGCGUUGGGGAUCGCCUACAUCCGAUUAGAUCGGAUUCUCCCUAAAAAUGACUAACUUUGUUUAGUCAUUUUUUU
DNA 1: CTCTCTTTCTGGCCTGGAGGCTATC
DNA 2: GATAGCCTCCAGGCCAGAAAGAGAG
activity (LPG10204): 25.5 % indels

B3: SGN005374 ; SGN005374 target (ssRNA ; dsDNA)
RNA: AGUAGCGCGAGCACAGCUAAGGCCAGCCAUAAUUCCUCCAAAGGGAGUUAUUAUGGUAAGGCAUUAUGCCGUGGCGUUGGGGAUCGCCUACAUCCGAUUAGAUCGGAUUCUCCCUAAAAAUGACUAACUUUGUUUAGUCAUUUUUUU
DNA 1: AGTAGCGCGAGCACAGCTAAGGCCA
DNA 2: TGGCCTTAGCTGTGCTCGCGCTACT
activity (LPG10204): 37.5 % indels

B4: SGN005374 ; SGN005374 target (LPG10208) (ssRNA ; dsDNA)
RNA: AGUAGCGCGAGCACAGCUAAGGCCAGCCAUAAUUCCUCCAAAGGGAGUUAUUAUGGUAAGGCAUUAUGCCGUGGCGUUGGGGAUCGCCUACAUCCGAUUAGAUCGGAUUCUCCCUAAAAAUGACUAACUUUGUUUAGUCAUUUUUUU
DNA 1: AGTAGCGCGAGCACAGCTAAGGCCA
DNA 2: TGGCCTTAGCTGTGCTCGCGCTACT
activity (LPG10208): 47.2 % indels

B5: SGN003668 ; B2M target SGN003668 (ssRNA ; dsDNA)
RNA: GGAGAGACUCACGCUGGAUAGCCUCGUCAUAGUUCCAUUAAAGCCAUUAAAGAAUGGCUUUGAUGUUUCUAUGAUAAGGGUUUCGGCCCGUGGCGUUGGGGAUCGCCUGCCCAUUUCAAUGGGCUUCUCCCCAUUU
DNA 1: GGAGAGACTCACGCTGGATAGCCTC
DNA 2: GAGGCTATCCAGCGTGAGTCTCTCC
activity (LPG10168): 0.61 % indels

B6: SGN003669 ; B2M target SGN003669 (ssRNA ; dsDNA)
RNA: UGACAGCAUUCGGGCCGAGAUGUCUGUCAUAGUUCCAUUAAAGCCAUUAAAGAAUGGCUUUGAUGUUUCUAUGAUAAGGGUUUCGGCCCGUGGCGUUGGGGAUCGCCUGCCCAUUUCAAUGGGCUUCUCCCCAUUU
DNA 1: TGACAGCATTCGGGCCGAGATGTCT
DNA 2: AGACATCTCGGCCCGAATGCTGTCA
activity (LPG10168): 3.68 % indels

B7: SGN005373 ; SGN005373 target (LPG10208) (ssRNA ; dsDNA)
RNA: UAGCCUCCAGGCCAGAAAGAGAGAGGCCAUAAUUCCUCCAAAGGGAGUUAUUAUGGUAAGGCAUUAUGCCGUGGCGUUGGGGAUCGCCUACAUCCGAUUAGAUCGGAUUCUCCCUAAAAAUGACUAACUUUGUUUAGUCAUUUUUUU
DNA 1: TAGCCTCCAGGCCAGAAAGAGAGAG
DNA 2: CTCTCTCTTTCTGGCCTGGAGGCTA
activity (LPG10208): 37.5 % indels
